# In patent US20170189519A1:
# What was measured:
# [1] = molecular target: H1-mini2-cluster1+5+6-GCN4 without leader sequence and with FLAG-thrombin-foldon-HIS; assay: ELISA, coated CR6261, HEK293F culture medium; average of the parental
# [2] = molecular target: H1-mini2-cluster1+5+6-GCN4 without leader sequence and with FLAG-thrombin-foldon-HIS; assay: ELISA, coated CR6261, P. pastoris culture medium; the reference itself
# [3] = molecular target: H1-mini2-cluster1+5+6-GCN4 without leader sequence and with FLAG-thrombin-foldon-HIS; assay: ELISA, coated CR6261, P. pastoris culture medium; average of the parental
# [4] = molecular target: H1-mini2-cluster1+5+6-GCN4 without leader sequence and with FLAG-thrombin-foldon-HIS; assay: ELISA, coated CR6261, HEK293F culture medium; the reference itself
substance,measurement,setting,value
CR6261 (antibody),CR6261 binding signal,[1],5.66e+06
same,ratio of CR6261 binding signal to HTRF signal,[1],17.4
same,fold increase of ratio over parental SEQ ID NO: 6,[2],1 fold
same,CR6261 binding signal,[3],238000
same,ratio of CR6261 binding signal to HTRF signal,[3],5.94
same,fold increase of ratio over parental SEQ ID NO: 6,[4],1 fold
